Our source for the EC50 values is patent publication US20260055182A1 (CIS BIOPHARMA, published 2026).

For this assay, the target named is T1, L1-CAM recombinant protein (His Tag), human (human, UniProt P32004 20-1120).
T1 construct: Bought protein; also called CD171; human L1-CAM; not shown: His tag
Description: ELISA, human L1-CAM coated at 2 µg/ml. In general terms: ELISA stands for enzyme-linked immunosorbent assay.

T1 sequence (P32004 20-1120 limits assumed): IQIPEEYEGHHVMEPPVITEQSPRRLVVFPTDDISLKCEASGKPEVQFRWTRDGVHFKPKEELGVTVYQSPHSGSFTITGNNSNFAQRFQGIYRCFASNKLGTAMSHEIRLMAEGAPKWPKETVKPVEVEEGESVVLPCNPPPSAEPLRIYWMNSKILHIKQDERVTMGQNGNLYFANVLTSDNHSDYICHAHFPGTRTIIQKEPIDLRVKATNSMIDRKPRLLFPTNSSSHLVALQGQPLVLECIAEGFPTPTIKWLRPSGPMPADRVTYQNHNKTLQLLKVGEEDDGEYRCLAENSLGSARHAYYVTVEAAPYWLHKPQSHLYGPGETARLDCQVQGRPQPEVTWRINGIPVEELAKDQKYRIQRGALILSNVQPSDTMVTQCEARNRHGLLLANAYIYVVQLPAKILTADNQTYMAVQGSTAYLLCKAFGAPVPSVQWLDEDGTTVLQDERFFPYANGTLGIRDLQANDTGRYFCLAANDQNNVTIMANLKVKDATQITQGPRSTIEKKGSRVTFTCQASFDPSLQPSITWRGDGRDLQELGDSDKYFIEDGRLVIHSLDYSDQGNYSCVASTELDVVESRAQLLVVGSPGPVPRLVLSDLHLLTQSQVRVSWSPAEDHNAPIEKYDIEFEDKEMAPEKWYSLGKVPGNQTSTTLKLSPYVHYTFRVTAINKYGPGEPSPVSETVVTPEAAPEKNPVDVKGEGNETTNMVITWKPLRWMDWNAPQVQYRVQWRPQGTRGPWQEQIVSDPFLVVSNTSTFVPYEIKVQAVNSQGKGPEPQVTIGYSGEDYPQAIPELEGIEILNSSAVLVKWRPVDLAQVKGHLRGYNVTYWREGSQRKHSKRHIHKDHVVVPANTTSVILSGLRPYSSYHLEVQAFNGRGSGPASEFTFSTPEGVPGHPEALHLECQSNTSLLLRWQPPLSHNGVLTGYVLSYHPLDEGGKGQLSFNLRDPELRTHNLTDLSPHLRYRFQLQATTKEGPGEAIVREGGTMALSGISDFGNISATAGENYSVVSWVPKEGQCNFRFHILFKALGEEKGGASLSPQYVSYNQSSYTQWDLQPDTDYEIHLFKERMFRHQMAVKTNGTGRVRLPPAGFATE

B1: LV1 (antibody, V domains shown)
VH: QVQLQQPGAELVKPGASVKLSCKASGYTFTGYYMHWVKQRPGHGLEWIGEINPSNGRTNYNERFKSKATLTVDKSSTTAFMQLSGLTSEDSAVYFCARDYYGTSYNFDYWGQGTTLTVSS
VL: DIQMTQSSSSFSVSLGDRVTITCKANEDINNRLAWYQQTPGNSPRLLISGATNLVTGVPSRFSGSGSGKDYTLTITSLQAEDFATYYCQQYWSTPFTFGSGTELEIKR
notes: CE7-VH-chimeric-WH33Y + CE7-VL-chimeric; chimeric CE7, human IgG1 kappa, L234A L235A P331S N297A; also called liability variant 1
By EC50 is commonly meant the concentration that produces a half-maximal response. In the case of B1, the 50% effective concentration (EC50) came to 0.0362 µg/mL.

B2: LV5 (antibody, V domains shown)
VH: QVQLQQPGAELVKPGASVKLSCKASGYTFTGYWMHWVKQRPGHGLEWIGEINPSNGRTNYNERFKSKATLTVDKSSTTAFMQLSGLTSEDSAVYFCARDYYGTSYNFDYWGQGTTLTVSS
VL: DIQMTQSSSSFSVSLGDRVTITCKANEDINLRLAWYQQTPGNSPRLLISGATNLVTGVPSRFSGSGSGKDYTLTITSLQAEDFATYYCQQYWSTPFTFGSGTELEIKR
notes: CE7-VH-chimeric + CE7-VL-chimeric-NL31L; chimeric CE7, human IgG1 kappa, L234A L235A P331S N297A; also called liability variant 5
In the case of B2, the concentration for a half-maximal effect (EC50) was found to be 0.0318 µg/mL.

B3: LV2 (antibody, V domains shown)
VH: QVQLQQPGAELVKPGASVKLSCKASGYTFTGYFMHWVKQRPGHGLEWIGEINPSNGRTNYNERFKSKATLTVDKSSTTAFMQLSGLTSEDSAVYFCARDYYGTSYNFDYWGQGTTLTVSS
VL: DIQMTQSSSSFSVSLGDRVTITCKANEDINNRLAWYQQTPGNSPRLLISGATNLVTGVPSRFSGSGSGKDYTLTITSLQAEDFATYYCQQYWSTPFTFGSGTELEIKR
notes: CE7-VH-chimeric-WH33F + CE7-VL-chimeric; chimeric CE7, human IgG1 kappa, L234A L235A P331S N297A; also called liability variant 2
On to B3, for which the EC50 is 0.0459 µg/mL.

B4: LV3 (antibody, V domains shown)
VH: QVQLQQPGAELVKPGASVKLSCKASGYTFTGYLMHWVKQRPGHGLEWIGEINPSNGRTNYNERFKSKATLTVDKSSTTAFMQLSGLTSEDSAVYFCARDYYGTSYNFDYWGQGTTLTVSS
VL: DIQMTQSSSSFSVSLGDRVTITCKANEDINNRLAWYQQTPGNSPRLLISGATNLVTGVPSRFSGSGSGKDYTLTITSLQAEDFATYYCQQYWSTPFTFGSGTELEIKR
notes: CE7-VH-chimeric-WH33L + CE7-VL-chimeric; chimeric CE7, human IgG1 kappa, L234A L235A P331S N297A; also called liability variant 3
For the molecule B4, the EC50 stood at 0.0328 µg/mL.

B5: LV4 (antibody, V domains shown)
VH: QVQLQQPGAELVKPGASVKLSCKASGYTFTGYWMHWVKQRPGHGLEWIGEINPSNARTNYNERFKSKATLTVDKSSTTAFMQLSGLTSEDSAVYFCARDYYGTSYNFDYWGQGTTLTVSS
VL: DIQMTQSSSSFSVSLGDRVTITCKANEDINNRLAWYQQTPGNSPRLLISGATNLVTGVPSRFSGSGSGKDYTLTITSLQAEDFATYYCQQYWSTPFTFGSGTELEIKR
notes: CE7-VH-chimeric-GH55A + CE7-VL-chimeric; chimeric CE7, human IgG1 kappa, L234A L235A P331S N297A; also called liability variant 4
In the case of B5, the EC50 is 0.0394 µg/mL.

B6: CE7-variant18 (antibody)
heavy: QVQLQQWGAGLLKPSETLSLTCAAYGYTFTGYWMHWIRQPPGKGLEWIGEINPSNGRTNYNERLKSRVTLSVDKSKNQASLKLSSVTAADTAVYFCARDYYGTSYNFDYWGQGTLVTVSSASTKGPSVFPLAPSSKSTSGGTAALGCLVKDYFPEPVTVSWNSGALTSGVHTFPAVLQSSGLYSLSSVVTVPSSSLGTQTYICNVNHKPSNTKVDKKVEPKSCDKTHTCPPCPAPEAAGGPSVFLFPPKPKDTLMISRTPEVTCVVVDVSHEDPEVKFNWYVDGVEVHNAKTKPREEQYNSTYRVVSVLTVLHQDWLNGKEYKCKVSNKALPASIEKTISKAKGQPREPQVYTLPPSREEMTKNQVSLTCLVKGFYPSDIAVEWESNGQPENNYKTTPPVLDSDGSFFLYSKLTVDKSRWQQGNVFSCSVMHEALHNHYTQKSLSLSPGK
light: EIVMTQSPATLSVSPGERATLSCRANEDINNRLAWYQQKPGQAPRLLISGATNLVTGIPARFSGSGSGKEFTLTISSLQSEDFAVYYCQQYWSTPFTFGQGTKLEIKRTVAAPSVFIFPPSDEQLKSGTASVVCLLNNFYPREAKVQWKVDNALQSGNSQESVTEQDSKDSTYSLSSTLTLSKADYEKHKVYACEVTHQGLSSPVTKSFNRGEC
notes: Human IgG1 kappa, L234A L235A P331S; also called CE7-434-VHA-315-VLB; humanized variant 18
Consider B6, for which the EC50 came to 0.00968 µg/mL.

B7: CE7-variant17 (antibody, V domains shown)
VH: QVQLQQWGAGLLKPSETLSLTCAAYGYTFTGYWMHWIRQPPGKGLEWIGEINPSNGRTNYNERLKSRVTLSVDKSKNQASLKLSSVTAADTAVYFCARDYYGTSYNFDYWGQGTLVTVSS
VL: EIVMTQSPATLSVSPGERATLSCKANEDINNRLAWYQQKPGQAPRLLISGATNLVTGIPARFSGSGSGKEYTLTISSLQSEDFAVYYCQQYWSTPFTFGQGTKLEIKR
notes: Human IgG1 kappa, L234A L235A P331S; also called CE7-434-VHA-315-VLA; humanized variant 17
With B7, the EC50 was 0.0108 µg/mL.

B8: CE7-variant16 (antibody, V domains shown)
VH: QVQLQQWGAGLLKPSETLSLTCAAYGYTFTGYWMHWIRQPPGKGLEWIGEINPSNGRTNYNERLKSRVTLSVDKSKNQASLKLSSVTAADTAVYFCARDYYGTSYNFDYWGQGTLVTVSS
VL: DIQMTQSPSSLSASVGDRVTITCQANEDINNRLAWYQQKPGKAPKLLISGATNLVTGVPSRFSGSGSGKDYTFTISSLQPEDIATYYCQQYWSTPFTFGQGTKLEIKR
notes: Human IgG1 kappa, L234A L235A P331S; also called CE7-434-VHA-133-VLB; humanized variant 16
Regarding B8, the EC50 worked out at 0.0132 µg/mL.
